Consider three molecules from publication PMC9900698, “Phosphorylation Regulation of a Histone-like HU Protein from Deinococcus radiodurans”.

Residue numbers refer to the chain shown, from its start.

The labels stand for the following.
T1: DrHU T37A (Deinococcus radiodurans R1 (ATCC13939), UniProt Q9RZ89 1-122, T37A)
T1 sequence: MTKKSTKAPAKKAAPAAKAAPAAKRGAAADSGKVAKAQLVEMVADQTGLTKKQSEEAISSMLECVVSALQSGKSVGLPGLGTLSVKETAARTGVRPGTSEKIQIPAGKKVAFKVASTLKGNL

T2: DrHU T37E (Deinococcus radiodurans R1 (ATCC13939), UniProt Q9RZ89 1-122, T37E)
T2 sequence: T1 sequence with A37E

B1: Duplex DNA (48bp) (dsDNA)
DNA 1: TAACAAGCAGAGTCAATTATGTCAATGACATAAAAGGCTCAGGCCTTC
DNA 2: GAAGGCCTGAGCCTTTTATGTCATTGACATAATTGACTCTGCTTGTTA
B2: Duplex DNA (24bp) (dsDNA)
DNA 1: TCAATTATGTCAATGACATAAAAG
DNA 2: CTTTTATGTCATTGACATAATTGA
B3: Duplex DNA (36bp) (dsDNA)
DNA 1: GCAGAGTCAATTATGTCAATGACATAAAAGGCTCAG
DNA 2: CTGAGCCTTTTATGTCATTGACATAATTGACTCTGC

The target in one series is T1, DrHU T37A. In words: EMSA; 10 mM Mg2+; EMSA: 50 mM NaCl, 20 mM Tris-HCl pH 8.0, 0.1 mg/ml BSA, 3 mM DTT, 0.1 mM EDTA, 10% glycerol, 10 mM MgCl2, 50 nM DNA, 0-3200 nM DrHU, room temperature 20 min; 22% native PAGE in 1x TB. As to conditions: protein: recombinant; tags: N-terminal His-MBP (pET28a-HMT), removed by TEV; chain copies: 2; label: 5'-FAM; blunt. For orientation: A gel shift assay detects complexes by their altered migration in electrophoresis.
B1: the binding result was “no binding”.
Consider B2, for which the binding result was “no binding”.
As to B3, the binding result is “no binding”.

The target in a further series is T2, DrHU T37E. The series is described as above. As to conditions: protein: recombinant; tags: N-terminal His-MBP (pET28a-HMT), removed by TEV; chain copies: 2; label: 5'-FAM; blunt.
With B1, the Kd came to 389 ± 56 nM.
In the case of B2, the Kd came to 1180 ± 95.9 nM.
On to B3, for which the dissociation constant (Kd) stood at 457 ± 62.9 nM.

Broadly, the Kd is the constant that tells how readily two partners part at equilibrium.
